Experimental findings from patent US20210123927A1 are described below.

This assay concerns the target galactose-deficient IgA1 (Gd-IgA1), enzymatically generated (UniProt P01876). Put plainly: dot blot, anti-His detection.
Chain of UniProt P01876 (P01876 other isoform, or with tags, fused parts or gaps): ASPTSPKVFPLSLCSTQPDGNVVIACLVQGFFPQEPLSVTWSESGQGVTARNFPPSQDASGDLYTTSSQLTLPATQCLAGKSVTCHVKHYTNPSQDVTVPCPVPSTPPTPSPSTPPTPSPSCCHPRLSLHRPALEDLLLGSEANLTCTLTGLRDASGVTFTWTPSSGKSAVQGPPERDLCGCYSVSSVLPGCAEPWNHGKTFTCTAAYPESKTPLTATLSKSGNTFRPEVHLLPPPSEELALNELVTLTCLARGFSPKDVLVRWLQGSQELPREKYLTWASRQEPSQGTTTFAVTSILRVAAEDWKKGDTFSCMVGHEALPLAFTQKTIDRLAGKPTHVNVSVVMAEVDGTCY

The substance “RussiaSea-001 (Crenomytilus grayanus lectin/CGL), His-tagged (artificial RussiaSea-001) (from UniProt H2FH31 1-150)” returned an amount of Gd-IgA1 detected in dot blot of more than 1 µg.
